B1: SSAP_184: SEQ ID NO: 353; Streptomyces scabiei (protein, listed as Streptomyces scabiei)
chain: DADRMARIALTLIRKNPDLATCSGESFLGALMTCSQLGFEPGSPTQEAFIVPYKGEATFQLGYQGMVTLFYQHPMASSVKVETVRENDYFEHEEGLEEKLVHRPCKTGPRGKAIAYYSVARLINGGRTFKVMYPAEIEERREKLPSKNSPAWRNSYDEMAKKTVLRNHFKALPKSAELARAMAHDGTVRTDWQPDAIDVPPEYLSEPQRPELGTGSTQ
B2: SSAP_20: SEQ ID NO: 189; CK3_26380 butyrate-producing bacterium SS3/4 (protein)
chain: ENATAVQQAESQGTQDFSAPVKHNTDFSLGIFGSSDNFLMATQMAKAFASSTIVPKEYQGNFANGLVAMDIANRLKTSPFMVMQNLDVIQGRPAWRATFLIAMINRSKKYDIELQFEEKRDKNGKPYSCTCWTTKDGRKVTGIEVTMDMAEAEGWTKKNGSKWITMPQVMLRYRAASFFSRMNCPELSNGLYTTDEVYEMADSEYKVYNLEDEVKRDLAQNANKEEFVAPPNETAPESESKGSEPLDPAVENQKSGDTPDWMKPETM
modifications: butyrate-producing bacterium SS3/4
B3: SSAP_172: SEQ ID NO: 341; Staphylococcus pettenkoferi (protein, listed as Staphylococcus pettenkoferi)
chain: ATQKDFKNQISQKETQQKQEVQKKKKGPRQQVSDLLDRMAPEIEKALPNHLSADRMARVAMTAVSSNPKLLECDPKSFIGAVMQSAQLGLEPNTALGEAYLVPYAGKVNFQLSYLGLINLATRSGQYKAIYAHEVYAEDEFRYQYGLHKDLIHKPVDNPKGKPIGYYAVYHLLNGGYDFVYWTTERIQKHAKKYSFAVQKGYQSPWNDEFDAMAKKTVLKDLLKYAPKSIEMNNAVRSDDKQSELSDEGVVIDVTNYDEENGEEK
B4: SSAP_211: SEQ ID NO: 380; unclassified Streptomyces (protein, listed as Streptomyces sp.)
chain: SQIGNAIATRDEGPAAQIEVYRDEYAALVPSHVNADQWVRLAVGAIRGNDDLLKAAGNDIGLFLREMKTAARLGLEPGTEQFYLTPRKSKAHGGRPVIKGIVGYQGIVELIYRAGAASTVIVEAVRQNDVFRYVPGRDDRPVHEIDWFGQDRGPLVGVYAYAVMKDGAVSKVVVLNKARVMELKAKSDSKNSPYSPWNTNEEAMWLKSGVRQLAKWVPTSAEFRRDQLLAHTDTADGVIASVSAPPLPPQSAALEDLDPDDEGPIDGELLDD
B5: SSAP_173: SEQ ID NO: 342; Tyzzerella nexilis (protein, listed as Tyzzerella nexilis)
chain: AGVKEELAKKAESTKGETKLTKSMSIADLIKAMEPEIKKALPEVITPERFTRMALSALNTTPKLRECTQMSFLAALMNAAQLGLEPNTPLGQAYLIPYNNKGVMECQFQIGYKGLIDLSYRNPQMQIISAQAVYENDDFSYELGLNPKLEHCPTLGERGEVRLFYGFFKLVNGGFGFEVMSKTAMDEYAKEYSKAFDSSFSPWKSNYIGMAKKTVIKQALKYAPLKTDFRKALSNDETIKTELSDDMSDIHGEEIWDVEYQEKTA
B6: SSAP_190: SEQ ID NO: 359; Microbacterium laevaniformans OR221 (protein)
chain: TDLSTVAAAAKQNPTMKDLVEAQLPAIERQLGGTMNSDAFVRAVLSEITKSPDLMQADPKTLLGGVMLAAQLRLEIGSGLGEFYLTPRKDHGRMICLPIVGFQGMVKLALRSEFVTNVQAFIVREGDDFTYGANAERGMFYDWTPKDFEEKRPMVGVVATARMKQGGTTWAYLTREQVEDRRPSYWQKTPWGSHPDEMAKKTAVRALAKYLPKATDLGRAIEADEQKVQHVKGLDEVTVTRLDDEPETVVVQETTDAWAATPVAEVQP
modifications: Microbacterium laevaniformans
notes: Microbacterium laevaniformans OR221
B7: SSAP_191: SEQ ID NO: 360 in b312 (Table 9 prints 354); Microbacterium sp. K41 (protein, listed as Microbacterium sp.)
chain: SKDLSTAAAAAKSQPTMKDLVEAQLPAIERQLGGAMNSDAFVRAVLSEIGKSPDLMNADPKTLLGGVMLAAQLRLEIGSGLGEFYLTPRKDRGRQICLPIIGYQGMIKLALRSEYVLNVQAFLVREGDDFTYGGNSERGMFYDWTPKDFEESRPWIGVVATAKMRGGGTTWVYLTRTQVIDRRPSYWASTPWKTNEDEMVKKTAVRALAKFLPKSTDLGRALEADEAKVQHLKGVDEVQVTRLDDDAETFVVQEQDPMSRTPEEQAEDEANR
B8: SSAP_192: SEQ ID NO: 361; Streptococcus pyogenes (protein)
chain: SDLSVAAAAAKTQPTMKDLVEAQLPAIERQLGGAMNSAAFVRAVLSEIGKSPDLMAADPKTLLGGVMLAAQLRLEIGSGLGEFYLTPRKERGRQICLPIIGYQGLIKLALRSEFVMNVQAFLVRQGDQFSYGANAERGMFYDWVPQDFEETRDWIGVVATARMRSGGTTWVYLTRTQVIDRRPSYWNSTPWKTNEDEMVKKTAVRALAKFLPKSTDLGRALEADEAKVQTLRGLDEVEVTRLDDEADTVVVQEQNPMSRTPEEQAEDAEAQR
modifications: Streptococcus pyogenes
B9: SSAP_210: SEQ ID NO: 379; Rufibacter latericius (protein, listed as Rufibacter latericius)
chain: SNQLQVAREQVISAQKSFKNVPNNKLDFEREAGFAMQMIQSNPFLASMDANSIRNCIVNVALTGLTLNPVLKLAYLVPRKGKLILDPSYMGLINVLVTSGAAKKIEADVVCENDFFDYEKGTNGFIKHKPSLSSRGEIIAAYAIAHLPNGEVQFEIMNREELEKVRKSSEAAKKGSSPYDGWASEMMRKAPIRRLFKYLPKHNIPDQVINTLSLDEQNNGVDFSAQKQEAFKGKAADFFEDEPANTVDADYTDMSHEEADNELAA
B10: SSAP_220: SEQ ID NO: 389; Amycolatopsis circi (protein, listed as Amycolatopsis circi)
chain: ISQTVTTAVAQQKDSSPAALVRKYRTDFATVLPSHIKPETWLRIATGALRRSPQLANAAKRNPSSLLVALLEAARKGLEPGTEQFYLVPRKGKNGPEVLGITGYQGEVELMYRAGAVSSVKVEVVREHDTFAYNPGEHDRPVHEIDWRADRGDLVLTYAYAVMRDGATSNVVVLSADDIAVILKKADGADSPFSPWQWNPKAMWLKSAARQLAKWVPTSAEYVRLPDVPLESLPPAKPLDLPRVDDVVDAEIVEDWPTAPDDTADGAR
B11: SSAP_288: SEQ ID NO: 457; Clostridium thermobutyricum (protein, listed as Clostridium thermobutyricum)
chain: QSTGDIVFPQNYNYSNALKSAQLILAETVDRNKVPVLQSCSKPSICNALLDMVIQGLSPAKKQCYFVPYGGKLQLMKSYLGNIAATKRLKGVKDVFANVIYEGDVFEYKLNLNTGLIEIEKHEQKFENISKKILGAYAVVVRENQNNYVEVMNIEQIKNAWNQGAAKGNSQAHKNFAEEMAKKTVINRACKRFVNTSDDSDTLIESINRTNEYKEEDIIETTKSEVGEEIKENANTENLGLEDTEVVEAEVIENIEFEGDK

system: mammalian cells; assay: Arrayed SSAP library screening, cell viability by live cell counts via flow cytometry; type: cell-based; conditions: not given
Protocol: (§1) Each SSAP encoding plasmid was tested in duplicate, including a negative control (same plasmid encoding Flag_HA which is not expected to promote gene editing). Transfections were in 96-well plates and transfection efficiency was estimated to be 50%.
(§2) Three days after transfection, mKate positive cells and cell viability were quantified across all replicates, along with positive (original RecT SSAP) and negative (Flag-HA control protein) controls. […] At the same time, the cell viability was measured by live cell counts via flow cytometry, to help quantify the fitness effect of SSAP on mammalian cells.
(§3) SSAP proteins are identified by Uniparc deposit number and SEQ ID NO. Alignment numbers correspond to SSAPs in FIGS. 58, 59, and 60.

Point of comparison: B3, “Cell Viability (Average, two targets)” value 0.9046. Against it:
- B1 — lower, 0.7361
- B2 — higher, 1.174
- B4 — lower, 0.3563
- B5 — lower, 0.8787
- B6 — higher, 1.044
- B7 — higher, 1.129
- B8 — higher, 1.071
- B9 — lower, 0.408
- B10 — higher, 0.9152
- B11 — lower, 0.6836

system: gene editing with Cas9; assay: Screen of 322 new SSAP proteins, gene editing activity with Cas9 (Table 5); type: cell-based; design: Cas9 with SSAP activity: scale not given here; conditions: not given
Procedure, shortened: (§4)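 Synthetic SSAP candidates, identified computationally, were tested in editing screens using both Cas9 and dCas9.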

Point of comparison: B4, “Cas9 with SSAP activity” value 2.771. Against it:
- B1 — lower, −0.836
- B2 — lower, −0.183
- B3 — lower, −2.356

same assay, conditions: normalized

Point of comparison: B1, “Cas9 with SSAP activity (normalized)” value −0.308. Against it:
- B2 — lower, −0.399
- B3 — lower, −0.702
- B4 — higher, 4.679

system: endogenous genome targets (ACTB, HSP90AA1); assay: Arrayed SSAP library screening, mKate knock-in assay (editing efficiency); type: cell-based; conditions: fold over negative control (Flag_HA); average of HSP90 and ACTB; 3 days after transfection
Protocol: Arrayed SSAP library screening on endogenous genome targets (ACTB. HSP90AA1) using mKate knock-in assay.
SSAP-encoding plasmids were purified and quantified.
as §1, §2, §3

Point of comparison: B2, “Editing Efficiency (Normalized, Average, two targets)” value 5.982. Against it:
- B1 — lower, 5.689
- B3 — lower, 4.239
- B4 — lower, 5.517
- B5 — lower, 4.674
- B6 — lower, 5.26
- B7 — lower, 4.75
- B8 — lower, 5.372
- B9 — higher, 6.484
- B10 — lower, 4.599
- B11 — lower, 3.832

same assay, conditions: percent of mKate knock-in; average of HSP90 and ACTB; 3 days after transfection

Point of comparison: B2, “Editing Efficiency (Absolute, Average, two targets)” value 14.85. Against it:
- B1 — lower, 14.075
- B3 — lower, 10.4925
- B4 — lower, 13.65
- B5 — lower, 11.55
- B6 — lower, 13.025
- B7 — lower, 11.75
- B8 — lower, 13.3
- B9 — higher, 16.05
- B10 — lower, 11.375
- B11 — lower, 9.4725

system: gene editing with dCas9; assay: Screen of 322 new SSAP proteins, gene editing activity with dCas9 (Table 5); type: cell-based; design: dCas9 with SSAP activity: scale not given here; conditions: not given
Procedure, shortened: as §4

Point of comparison: B1, “dCas9 with SSAP activity” value −2.910. Against it:
- B2 — lower, −4.179
- B3 — lower, −5.287
- B4 — lower, −5.365

same assay, conditions: normalized

Point of comparison: B3, “dCas9 with SSAP activity (normalized)” value −0.724. Against it:
- B1 — higher, −0.482
- B2 — higher, −0.615
- B4 — lower, −0.904

system: gene editing with Cas9 and dCas9; assay: Screen of 322 new SSAP proteins, activity across all experiments (Cas9 and dCas9, Table 5); type: cell-based; design: scale not given here; conditions: not given
Procedure, shortened: as §4

Point of comparison: B1, “Activity across all experiments” value −1.873. Against it:
- B2 — lower, −2.181
- B3 — lower, −3.822
- B4 — higher, −1.297

Reference: US20250034594A1, “RNA-GUIDED GENOME RECOMBINEERING AT KILOBASE SCALE” (THE BOARD OF TRUSTEES OF THE LELAND STANFORD JUNIOR …, priority 2021, published 2025)
